# T1: Ac-Asp-Ala-Asp-Glu-F2Pmp-Leu-NH2 (Homo sapiens, UniProt P18031, C215S)
# T1 construct: The catalytic domain of PTP1B (residues 1 to 321) was used for in vitro study; made in house; host or cells: E. coli (pT7-7 plasmids)
# T1 sequence (P18031 1-321 C215S): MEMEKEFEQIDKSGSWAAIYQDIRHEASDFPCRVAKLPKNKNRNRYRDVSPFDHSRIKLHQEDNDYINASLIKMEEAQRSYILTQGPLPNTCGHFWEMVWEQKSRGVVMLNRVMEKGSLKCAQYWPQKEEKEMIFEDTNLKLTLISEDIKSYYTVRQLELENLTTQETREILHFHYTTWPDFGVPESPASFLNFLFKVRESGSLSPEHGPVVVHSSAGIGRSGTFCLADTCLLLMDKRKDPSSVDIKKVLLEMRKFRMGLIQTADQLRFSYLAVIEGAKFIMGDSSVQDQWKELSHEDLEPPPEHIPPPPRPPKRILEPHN
# B1: C215S: existing PTP1B substrate-trapping mutant, active site Cys215 replaced by Ser (protein, UniProt P18031 1-435, looked up, variant C215S)
# Tyrosine-protein phosphatase …: MEMEKEFEQIDKSGSWAAIYQDIRHEASDFPCRVAKLPKNKNRNRYRDVSPFDHSRIKLHQEDNDYINASLIKMEEAQRSYILTQGPLPNTCGHFWEMVWEQKSRGVVMLNRVMEKGSLKCAQYWPQKEEKEMIFEDTNLKLTLISEDIKSYYTVRQLELENLTTQETREILHFHYTTWPDFGVPESPASFLNFLFKVRESGSLSPEHGPVVVHSSAGIGRSGTFCLADTCLLLMDKRKDPSSVDIKKVLLEMRKFRMGLIQTADQLRFSYLAVIEGAKFIMGDSSVQDQWKELSHEDLEPPPEHIPPPPRPPKRILEPHNGKCREFFPNHQWVKEETQEDKDCPIKEEKGSPLNAAPYGIESMSQDTEVRSRVVGGSLRGAQAASPAKGEPSLPEKDEDHALSYWKPFLVNMCVATVLTAGAYLCYRFLFNSNT
# What was measured:
# [1] = tested on: EGFR^988-998 peptide, DADEpYLIPQQG; experiment: Kinetic constants for PTP1B-catalyzed hydrolysis of pTyr-containing EGFR988-998 peptide; assay type: biochemical; conditions: EGFR988-998 peptide as substrate
# Method in brief: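 PTP1B catalytic domain (residues 1–321), wild-type or mutant, expressed in E. coli. Continuous assay at 25° C., pH 7.0, in 50 mM 3,3-dimethylglutarate with 1 mM EDTA (ionic strength 0.15 M). Dephosphorylation followed by absorbance increase at 282 nm or fluorescence at 305 nm to obtain kcat and Km.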
# [2] = tested on: Ac-Asp-Ala-Asp-Glu-F2Pmp-Leu-NH2; conditions: cited from earlier work
# [3] = target: T1, Ac-Asp-Ala-Asp-Glu-F2Pmp-Leu-NH2; experiment: Isothermal titration calorimetry, binding of PTP1B and mutants to F2Pmp peptide; conditions: lower temperature (15° C.)
# Experimental: FIG. 3 portrays calorimetric isothermal titration for the reaction of peptide Ac-Asp-Ala-Asp-Glu-F2Pmp-Leu-NH2 with PTP1B/D181A/Q262A. The upper graph depicts raw data for thirty 8-μl injections of the peptide (0.5 mM stock) into the isothermal cell containing 32 μM PTP1B/D181A/Q262A, at 4-min intervals and 25° C. Both the protein and the peptide were in 50 mM 3,3-dimethylglutarate buffer (I=0.15 M, pH 7.0) containing 1 mM DTT. The lower graph depicts an integration curve showing experimental points that were obtained by integration of the above peaks as plotted against the molar ratio of the peptide to PTP1B/D181A/Q262A within the reaction cell. The solid line corresponds to the best fit to the data according to the nonlinear, least-squares regression algorithm, ORIGIN (29).
# All isothermal titration calorimetry experiments were performed using an MCS Isothermal Titration Calorimetry System from Microcal Inc. (Northampton, Mass.). […] The ionic strength of the buffer was adjusted to 0.15 M by addition of NaCl. Protein concentration in the calorimeter cell was 27-85 μM, while the ligand concentration in the syringe was 0.37-1 mM.
# The PTP1B samples used in the isothermal titration calorimetry experiments were dialyzed completely against buffer. High-concentration stock solutions were prepared for ligands with distilled water, and adjusted to pH 7.0. Stock was diluted at least 26-fold with 50 mM 3,3-dimethylglutarate buffer before titration. Protein dilution during titration was determined by titration of buffer into the protein solution. […] The heat of ligand dilution was corrected by subtracting the average heat of injection after saturation.
# The binding data were analyzed using ORIGIN software (29). Binding constant, K, and enthalpy change, ΔH, were used to calculate free energy change, ΔG, and entropy change, ΔS, according to equation [1]: −RTLnK=ΔG=ΔH−TΔS [1] where R is the gas constant and T is the absolute temperature.
molecule,measurement,setting,value
B1,phosphatase activity,[1],no measurable activities
same,affinity compared with wild-type enzyme,"[2]; F2Pmp peptide, previously determined (24)",same affinity as the wild-type enzyme
same,Kd,"[2]; ITC, 25° C. and pH 7.0, data from (24)",190 ± 30 nM
same,shape of ITC titration curve,[3],displayed two peaks
